According to patent publication US20090235392A1 (PIONEER HI BRED INTERNATIONAL, published 2009):
Values belong to the binder of their own block, whether it stands above or below them.

Molecular target: T1, GAL4BD:CKI2(590-922) (Arabidopsis thaliana)
T1 construct: Yeast two-hybrid bait; Any linker or tag from the vector is not described; also called AT-CKI2(590-922); pRM430
Experiment: yeast two-hybrid
From the text: Clones representing two independent genes, ARABIDOPSIS HISTIDINE PHOSPHOTRANSFER PROTEIN 3 (AHP3, At5G39340) and At3G28690, a putative serine/threonine protein kinase, were identified from the library screen with GAL4BD:CKI2(590-922). AHPs are the described signaling targets of canonical receptor histidine kinases, such as CRE1, AHK1 and ETR1 (Grefen and Harter, 2004). […] At3G28690 is homologous to the previously published ARABIDOPSIS PROTEIN KINASE 1 (APK1) (Hirayama and Oka, 1992) and APK2 (Ito, et al., 1997) and is designated APK3. […] APK3 has been classified as a Receptor Like Cytoplasmic Kinase (RLCK) VII (Family 1.2.2) in Arabidopsis. […] Its use in modulation of cytokinin-dependent growth responses is being pursued through both transgenic and mutant analysis.
The yeast two-hybrid assays discussed in Example 1 were conducted as follows. Polyadenylated mRNA was isolated from Arabidopsis aerial tissue using a FastTrack™ mRNA kit (Invitrogen, Carlsbad, Calif., USA). First strand cDNA was created using a cDNA synthesis kit (Stratagene, La Jolla, Calif., USA), subsequently cloned into pGADT7 (Clontech, Palo Alto, Calif., USA), and the cDNA library was transformed into the yeast strain AH109 (Clontech).

- binding result: no binding
B1: APK3(115-476) (other)
chain: MFNDLKLATRNFRPESLLGEGGFGCVFKGWIEENGTAPVKPGTGLTVAVKTLNPDGLQGHKEWLAEINFLGNLVHPSLVKLVGYCMEEDQRLLVYEFMPRGSLENHLFRRTLPLPWSVRMKIALGAAKGLAFLHEEAEKPVIYRDFKTSNILLDGEYNAKLSDFGLAKDAPDEKKSHVSTRVMGTYGYAAPEYVMTGHLTTKSDVYSFGVVLLEILTGRRSVDKSRPNGEQNLVEWVRPHLLDKKRFYRLLDPRLEGHYSIKGAQKATQVAAQCLNRDSKARPKMSEVVEALKPLPNLKDFASSSSSFQTMQPVAKNGVRTQGGGFVSRNGPPMRSLSSLNLPQASPYRYARQSPKPKGKEP
notes: Second truncated APK3 tested as a fusion protein in the two-hybrid assay; also called second truncated APK3 protein; At3G28690; not shown: two-hybrid fusion partner

- binding result: no binding
B2: full-length APK3 fusion protein (other)
chain: MATKLESFKVVEKLGVEKGEKGKMMSKKKNVKKDGDESESGFWFRFKFIFSCISSRSKVDSSMNATAVIAEPKKVIEKLEGHPAPTKDTGCAESGSSTPLMSGELKYSSKLRIFMFNDLKLATRNFRPESLLGEGGFGCVFKGWIEENGTAPVKPGTGLTVAVKTLNPDGLQGHKEWLAEINFLGNLVHPSLVKLVGYCMEEDQRLLVYEFMPRGSLENHLFRRTLPLPWSVRMKIALGAAKGLAFLHEEAEKPVIYRDFKTSNILLDGEYNAKLSDFGLAKDAPDEKKSHVSTRVMGTYGYAAPEYVMTGHLTTKSDVYSFGVVLLEILTGRRSVDKSRPNGEQNLVEWVRPHLLDKKRFYRLLDPRLEGHYSIKGAQKATQVAAQCLNRDSKARPKMSEVVEALKPLPNLKDFASSSSSFQTMQPVAKNGVRTQGGGFVSRNGPPMRSLSSLNLPQASPYRYARQSPKPKGKEP
notes: Full-length APK3 tested as a fusion protein in the two-hybrid assay; also called AtAPK3; At3G28690; not shown: two-hybrid fusion partner
